# Data taken from US20100144029.
# Biological target: ClpP proteasome (UniProt P0A6G7)
substance,measurement,value
processed E. coli ClpX protein (after proteolytic removal of the T7B carboxyl-terminal extension),ATPase activity and ability to cooperate with the ClpP proteasome in degrading model protein substrates,full biological activity
